In patent publication US20130130985A1:

Columns and labels:
Experiment in all cases: cell-based or functional assay
[1] = molecular target: human vasopressin V2 receptor (human), P30518
[2] = molecular target: human vasopressin V1a receptor (human), P37288
[3] = molecular target: T1, human oxytocin receptor (human), P30559
T1 chain: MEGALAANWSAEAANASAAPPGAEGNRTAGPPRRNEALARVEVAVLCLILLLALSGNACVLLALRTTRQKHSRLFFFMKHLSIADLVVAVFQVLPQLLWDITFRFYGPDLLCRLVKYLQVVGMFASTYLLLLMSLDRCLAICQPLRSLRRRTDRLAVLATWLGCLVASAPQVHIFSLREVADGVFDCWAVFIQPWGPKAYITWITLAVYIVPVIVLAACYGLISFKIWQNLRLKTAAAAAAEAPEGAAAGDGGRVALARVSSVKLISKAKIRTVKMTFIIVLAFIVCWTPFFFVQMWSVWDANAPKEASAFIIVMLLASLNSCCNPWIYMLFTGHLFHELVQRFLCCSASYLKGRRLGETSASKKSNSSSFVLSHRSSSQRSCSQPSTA

[4] = molecular target: T2, human vasopressin V1b receptor (human), P47901
T2 chain: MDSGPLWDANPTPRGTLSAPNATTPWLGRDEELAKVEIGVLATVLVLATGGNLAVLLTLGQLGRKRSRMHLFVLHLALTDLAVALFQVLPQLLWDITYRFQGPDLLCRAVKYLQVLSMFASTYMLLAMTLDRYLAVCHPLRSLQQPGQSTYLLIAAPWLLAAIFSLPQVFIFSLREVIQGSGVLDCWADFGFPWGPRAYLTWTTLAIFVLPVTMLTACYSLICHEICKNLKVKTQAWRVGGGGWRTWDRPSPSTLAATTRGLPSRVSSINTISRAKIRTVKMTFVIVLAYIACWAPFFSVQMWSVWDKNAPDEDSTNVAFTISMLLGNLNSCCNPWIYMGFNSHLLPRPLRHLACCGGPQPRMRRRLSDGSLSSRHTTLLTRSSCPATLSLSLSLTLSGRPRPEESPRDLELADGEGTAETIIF

human vasopressin V1a receptor (human), P37288, sequence (P37288 whole entry): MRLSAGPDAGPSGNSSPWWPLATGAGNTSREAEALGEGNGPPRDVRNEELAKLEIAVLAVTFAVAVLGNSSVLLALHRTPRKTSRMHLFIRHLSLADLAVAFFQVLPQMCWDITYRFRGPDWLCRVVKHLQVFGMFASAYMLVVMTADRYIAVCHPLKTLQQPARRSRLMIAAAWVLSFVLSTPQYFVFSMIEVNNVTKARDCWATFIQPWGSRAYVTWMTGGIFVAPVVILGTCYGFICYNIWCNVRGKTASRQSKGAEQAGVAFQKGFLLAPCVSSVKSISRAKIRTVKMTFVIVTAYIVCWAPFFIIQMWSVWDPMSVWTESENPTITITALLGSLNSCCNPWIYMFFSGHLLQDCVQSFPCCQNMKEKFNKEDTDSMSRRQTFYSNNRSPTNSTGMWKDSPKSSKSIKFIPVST

Emax, cAMP accumulation assay [1]: 134% | Emax, FLIPR calcium assay [2]: 100% | EC50, IP-One HTRF assay [3]: 400 nM | Emax, FLIPR calcium assay [3]: 89% | Emax, IP-One HTRF assay [3]: 72% | Emax, FLIPR calcium assay [4]: 92% | Emax, IP-One HTRF assay [4]: 96%
Binder: UYIQNUPLG (not fully specified; modifications not checked) [d[C1,6U]-OT]
